Measured values published in the supplement of paper PMC9170038.

Tests used:
MS2 coat protein [1] = test: apparent KD of MS2 coat protein; designed switch direction (-1 OFF switch, 1 ON switch): 1; higher = weaker reporter binding
In short: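 RNA switches sharing common flanks were transcribed by stalled E. coli RNA polymerase on Illumina chips. A doubling series of SNAP-549-labelled MS2 coat protein, from 0.7 or 1.5 nM to 3 µM, was applied in Tris-HCl pH 7.5 buffer with KCl, MgCl2, BSA, DTT, tRNA and Tween-20. Each step lasted 0.8–1.5 h at the bottom of the series and 10–20 min at the top. Normalised cluster fluorescence was curve-fitted, giving apparent KD as the per-design median over clusters.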

MS2 coat protein [2] = test: apparent KD of MS2 coat protein; higher = weaker reporter binding; details: Eterna round: R107
In short: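 Values are apparent KD, taken as the median for each design of fits to normalised binding curves from individual clusters. The designed RNA switches were transcribed on-chip from Illumina sequencing clusters and exposed to SNAP-549-labelled MS2 coat protein at twofold increasing amounts from 0.7 or 1.5 nM to 3 µM. Titration used 100 mM Tris-HCl pH 7.5, 80 mM KCl and 4 mM MgCl2, without or with constant ligand.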

[3] = Eterna round: R95, input ligand: FMN 200 uM
[4] = Eterna round: R95, input ligand: microRNA oligo, concentration not stated
[5] = Eterna round: R95, input ligand: none
[6] = input ligand: microRNA oligo, concentration not stated
[7] = input ligand: theophylline 20 uM
[8] = input ligand: tryptophan 2.4 mM
[9] = input ligand: theophylline 2 mM

| Sequence | apparent KD of MS2 coat protein (MS2 coat protein [1]; input ligand: FMN 200 uM) | apparent KD of MS2 coat protein (MS2 coat protein [1]; [6]) | apparent KD of MS2 coat protein (MS2 coat protein [1]; input ligand: none) | further results |
| --- | --- | --- | --- | --- |
| AGUCCAGCCAGAGCUGGACAAAAGCAUGUACAUGAGGAUCACCCAUGUCAUGUACAAGCUUUUUGCUCGUCUUAAUA [Mat - hsa-mir-208a - Mod of JL - D37] (puzzle: Sensor for hsa-mir-208a) |  |  |  | apparent KD of MS2 coat protein (MS2 coat protein [1]; [3]): 632 nM; apparent KD of MS2 coat protein (MS2 coat protein [1]; [4]): 15.4 nM; apparent KD of MS2 coat protein (MS2 coat protein [1]; [5]): 621 nM |
| GGUAAGAAUUAAGGAUAUUGAAUACAUAUGUUUAACAUGAGGAUCACCCAUGUGGGUUGCGGUGUCGAGAAGGUAAAUUACUAG [Mat - same State NG 2 - JL mod - D99] (Eterna round: R96, puzzle: Same State NG 2) | 281 nM | 179 nM | 229 nM |  |
| AUACCAUCAGGAGGAUAUGGCACCUUAUUGGUGCCAGAAGGUCUAACAUGAGGAUCACCCAUGUGGGAGUGGUCUAAUGACCAC [Eli NG1ss - 86] (Eterna round: R96, puzzle: Same State NG 1) | 73.7 nM | 72.3 nM | 91 nM |  |
| GGUAGGUUACUACCAAACAUGAGGAUCACCCAUGUAGGUGGGAAGGAUAUGGUACCUUUUAGGUACCAGAAGGUCCAUACGAUC [NGss mod of JL's mod of Fisker 2] (Eterna round: R96, puzzle: Same State NG 3) | 451 nM | 325 nM | 562 nM |  |
| GGAGCCGGCCUAGGAUAUUUCAUAUAUUAACAUGAGGAUCACCCAUGUAGGCCAGAAGGCCUUGGGAAGAAGGAGGUCGGCUCC [Loop Effect - U25,U27,U28] (Eterna round: R96, puzzle: Same State NG 2) | 15.7 nM | 49.8 nM | 79.6 nM |  |
| AAAAAACAUGAGGAUCACCCAUGUAAAAAAAUGGGAGGAUAUACAAAAACAAAAAAAAAAGUAGAAGGCCUGAAAA [same state 9] (Eterna round: R96, puzzle: Same State 1) | 59.2 nM | 478 nM | 520 nM |  |
| GUGGUGGGUUGAGGAUAUUGGUUGUUGUUGUUUUACAUGAGGAUCACCCAUGUGGGUUGUGGUUUUGAGAAGGUUGGUUGCUGG [salish99_SSNG2_r04_048] (Eterna round: R96, puzzle: Same State NG 2) | 262 nM | 194 nM | 185 nM |  |
| ACAUGAGACUUAGGAUAUCUUGUACCUACAUGUGACAUGAGGAUCACCCAUGUGGUAAGUAUGACAGAGAAGGAAGAGAUAUGU [Equivalance 68 - Jieux - Same State NG 2] (Eterna round: R96, puzzle: Same State NG 2) | 40.4 nM | 49.9 nM | 79.7 nM |  |
| ACCAAUCCAAUAAAACAAGCGUGCUCGUCACAUGAGGAUCACCCAUGUUCAAGCGCUGUUCCUAAUUCCUCAGCGCC [Ortiat] (puzzle: Sensor for hsa-mir-208a) |  |  |  | apparent KD of MS2 coat protein (MS2 coat protein [1]; [3]): 72.3 nM; apparent KD of MS2 coat protein (MS2 coat protein [1]; [4]): 22.3 nM; apparent KD of MS2 coat protein (MS2 coat protein [1]; [5]): 67.7 nM |
| GUUACAUGAGGAUCACCCAUGUAUGUGUGGGAGUAAGUGUCUUAGGAUAUCUGUUAUUUAAUUUGAGAGAAGGAAGAUUGUUGU [JMF's solution 47] (Eterna round: R96, puzzle: Same State NG 3) | 134 nM | 71.7 nM | 89.1 nM |  |
| ACUUAGUACAAUUUAGAUCUACAUGAGGAUCACCCAUGUACUGAGGAUAUCAGCUCGUUUAGAGCUGAGAAGGCAGAAGUACUU [SSNG3/8-A3] (Eterna round: R96, puzzle: Same State NG 3) | 54.7 nM | 234 nM | 207 nM |  |
| AUUAAACAUGAGGAUCACCCAUGUCAACAAAGUCGAGGAUAUGGGCAUAUUAUCUAAUAACCAGAAGGCGAAUAAU [salish99_ss1_r3_085] (Eterna round: R96, puzzle: Same State 1) |  | 177 nM |  |  |
| AAUGCACAUGAGGAUCACCCAUGUAAGACAAAGACAGGAUAUGGGCCGCAUGGCUCUGGCCCAGAAGGGUCAGUCG [Biorinin] (puzzle: Same State 1) |  |  |  | apparent KD of MS2 coat protein (MS2 coat protein [1]; [4]): 19.8 nM |
| CCGUAGAUGGAAGGAUAUGGAGCCUUAUUGGCUCCAGAAGGUUCAAUAACAUGAGGAUCACCCAUGUCGGCGGUCAAUAGACCG [Eli NG1ss - 80] (Eterna round: R96, puzzle: Same State NG 1) | 20.5 nM | 27.7 nM | 44.9 nM |  |
| AACAAUCUAUCUGAGGAUAUCAUGAAAUAAACAUGAGGAUCACCCAUGUGCAGGAAAACUGCAUAUGAGAAGGCAGAUUGAUUGA [salish99_ss2_r3_054] (puzzle: Same State 2) |  |  |  | apparent KD of MS2 coat protein (MS2 coat protein [1]; [3]): 56 nM; apparent KD of MS2 coat protein (MS2 coat protein [1]; [4]): 2560 nM; apparent KD of MS2 coat protein (MS2 coat protein [1]; [5]): 1280 nM |
| UCUUGGUUUUUGCUCGUUUUUUGUGUUGAACAUGAGGAUCACCCAUGUAUUGUACAGUCCAGUUUAAUAAUGGUCCG [JMF 55] (puzzle: Sensor for hsa-mir-208a) |  |  |  | apparent KD of MS2 coat protein (MS2 coat protein [1]; [3]): 36.9 nM; apparent KD of MS2 coat protein (MS2 coat protein [1]; [4]): 25.6 nM; apparent KD of MS2 coat protein (MS2 coat protein [1]; [5]): 38.1 nM |
| UUGAAGAAUUAAGGAUAUCGAGUCAAGAUGUAAAACAUGAGGAUCACCCAUGUGGGUUGCGGUAUCGAGAAGGUAAAUUACAAG [Mat - Same State NG 2 - JL mod - D52] (Eterna round: R96, puzzle: Same State NG 2) | 24.1 nM | 16.9 nM | 35.4 nM |  |
| UUAAUAAUGAUAGGAUAUACAUGAGGAAUUCUCGUAGAAGGAUCAUGACAUGAGGAUCACCCAUGUAACGCUCCGUAGAGCGUA [Mat - Same State NG 1 - JL mod - D36] (Eterna round: R96, puzzle: Same State NG 1) | 413 nM | 321 nM | 447 nM |  |
| AGGCAAGCUUUUUGCUGGUAUGGAGGAUAACAUGAGGAUCACCCAUGUAUUGGAGGUGUUGAAGAUUUGAGAAAGAA [JR_SHM208A_Sub005] (puzzle: Sensor for hsa-mir-208a) |  |  |  | apparent KD of MS2 coat protein (MS2 coat protein [1]; [3]): 118 nM; apparent KD of MS2 coat protein (MS2 coat protein [1]; [4]): 149 nM; apparent KD of MS2 coat protein (MS2 coat protein [1]; [5]): 139 nM |
| AUCCGAACCAUAGGAUAUACUGGCCUCGGGCCAGUAGAAGGGUGGGACAUGAGGAUCACCCAUGUAAAGCACAAUCAGUGCAAA [Ceramace] (Eterna round: R96, puzzle: Same State NG 1) | 167 nM | 119 nM | 151 nM |  |
| GGUGGGUUGCUGCCGGCACAUGAGGAUCACCCAUGUUUUGGGAAGGAUAUGGUCCCUCUUUGGUGCCAGAAGGUCCCGUUGGUG [salish99_SSNG3_r04_714] (Eterna round: R96, puzzle: Same State NG 3) | 691 nM | 402 nM | 743 nM |  |
| GACAAUCUAUCUGAGGAUAUCAUGAAAAAAACAUGAGGAUCACCCAUGUGCAGGAAAACUGCAUAUGAGAAGGCAGAUAGAUUGA [salish99_SS2_r3_009] (Eterna round: R96, puzzle: Same State 2) |  | 453 nM |  |  |
| AAGAAACAUGAGGAUCACCCAUGUAGAAAUAUGGGAGGAUAUACGAGGACGAAAGUCAAAGUAGAAGGCCUAAGAA [Mat - Same State 1 - Meechl mod - D130] (Eterna round: R96, puzzle: Same State 1) | 21.4 nM | 54.5 nM | 63.8 nM |  |
| GAGCCAGUCCGAGGAUAUUCAUUAAAUUAAAUACAUGAGGAUCACCCAUGUAGGCGAGAGCCUUGGGAGAAGGCGGACUGGCUC [Xeonanisa>>4] (Eterna round: R96, puzzle: Same State NG 2) | 15.5 nM | 53.8 nM | 97.6 nM |  |
| GGUGCCAAUAAAGCCUACAUGAGGAUCACCCAUGUAUGUAGGCAGGAUAUCGUUUGCAAAGCAAACGAGAAGGGCCGAGGCACC [Mat - Same State NG 3 - JL Mod - D55] (Eterna round: R96, puzzle: Same State NG 3) | 18 nM | 29.3 nM | 39.6 nM |  |
| AAUUGCGUUGGUGAGGCGGUUAAUGGCGAUACCAGCGUGGAAACACGCCCUUGGCAGCGCCAAAACAUGAGGAUCACCCAUGUUA [Liberec] |  |  |  | apparent KD of MS2 coat protein (MS2 coat protein [2]; input ligand: arginine 13.2 mM): 50.7 nM; apparent KD of MS2 coat protein (MS2 coat protein [2]; [7]): 149 nM; apparent KD of MS2 coat protein (MS2 coat protein [2]; [8]): 82.5 nM |
| UAACAUGAGGAUCACCCAUGUUUAGAUGAACGAGGACCGGUACGGCCGCCACUCGAUAAGUGGAAAGAGCGAGGGAUUGUAUGCU [Same State Trp A GF4] |  |  |  | apparent KD of MS2 coat protein (MS2 coat protein [2]; input ligand: arginine 13.2 mM): 12.2 nM; apparent KD of MS2 coat protein (MS2 coat protein [2]; input ligand: none): 12.4 nM; apparent KD of MS2 coat protein (MS2 coat protein [2]; [7]): 16.2 nM; apparent KD of MS2 coat protein (MS2 coat protein [2]; [9]): 10.3 nM; apparent KD of MS2 coat protein (MS2 coat protein [2]; [8]): 11.9 nM |
| AUGCAGAGCACGGCCGCCACUCCAUGUAUACAUGAGGAUCACCCAUGUAAUUUGUAUUUUUUAUAGAGGACCGGGUGAAAUGCAA [JR_SSTryptoB_Sub011] |  |  |  | apparent KD of MS2 coat protein (MS2 coat protein [2]; input ligand: arginine 13.2 mM): 41.4 nM; apparent KD of MS2 coat protein (MS2 coat protein [2]; [7]): 34.1 nM; apparent KD of MS2 coat protein (MS2 coat protein [2]; [9]): 36.2 nM |
| ACACGUGACAAGGAUACCAGCCUGGCUAGUUCAAACCCUCACAUGAGGAUCACCCAUGUAGGCCCUUGGCAGCCUAUAGUCUAAG [theeternabot_exclusion_MS2_Theo_B_38] |  |  |  | apparent KD of MS2 coat protein (MS2 coat protein [2]; input ligand: arginine 13.2 mM): 27.7 nM; apparent KD of MS2 coat protein (MS2 coat protein [2]; [7]): 43.7 nM; apparent KD of MS2 coat protein (MS2 coat protein [2]; [8]): 29.9 nM |
